# Paper PMC9820253, “Integration Host Factor Binds DNA Holliday Junctions”
# Changes are numbered by the printed parent chain.
# B1: J20 junction (structured_DNA)
# DNA 1: CCACCGCTCAACTCAACTGC
# DNA 2: GCAGTTGAGTCCTTGCTAGG
# DNA 3: CCTAGCAAGGGGCTGCTACC
# DNA 4: GGTAGCAGCCTGAGCGGTGG
# B2: J34 junction (structured_DNA)
# DNA 1: CCTTCAACCACCGCTCAACTCAACTGCAGTCTGG
# DNA 2: CCAGACTGCAGTTGAGTCCTTGCTAGGACGGAGG
# DNA 3: CCTCCGTCCTAGCAAGGGGCTGCTACCGGAAGGG
# DNA 4: CCCTTCCGGTAGCAGCCTGAGCGGTGGTTGAAGG
# B3: J34 junction, fluorescein end-labeled (structured_DNA)
# DNA 1: B2 DNA 1
# DNA 2: B2 DNA 2
# DNA 3: B2 DNA 3
# DNA 4: B2 DNA 4
# B4: J34 junction, 6-MI labeled (structured_DNA)
# DNA 1: B2 DNA 1
# DNA 2: B2 DNA 2
# DNA 3: B2 DNA 3
# DNA 4: B2 DNA 4
# modifications: 6-methylisoxanthopterin (6-MI) nucleoside
# B5: JH1 junction (structured_DNA)
# DNA 1: CCTTCAACCACCGCTCATGATTACTGCAGTCTGG
# DNA 2: CCAGACTGCAGTAATCAACTACTTAGGACGGAGG
# DNA 3: B2 DNA 3 with G12A, C13G, A14T, G17T
# DNA 4: B2 DNA 4 with C22T
# Experiments:
# [1] = target: T1, Integration Host Factor (IHF) (Escherichia coli (purified from E. coli …, UniProt P0A6X7;P0A6Y1 1-99;1-94)); test: fluorescence anisotropy; 1 mM Mg2+?; 5 mM Tris-HCl pH 7.4-7.6, 70 mM KCl, 0.1 mM EDTA, 0.5-10% ethylene glycol, fluorescence at 10 C; Mg buffer: 5 mM Tris-HCl pH 7.4, 1 mM MgCl2, 10% ethylene glycol; stopped flow 20 C with 0.01% NP-40; details: protein: recombinant; copies: 1;1; label: none for EMSA (SYBR Green); 5' TAMRA for fluorescence intensity; donor-acceptor pair for stopped flow; four-way junction of 4 strands (20 nt), four 10 bp arms
# T1 sequence (P0A6X7 whole entry, chain 1 of 2): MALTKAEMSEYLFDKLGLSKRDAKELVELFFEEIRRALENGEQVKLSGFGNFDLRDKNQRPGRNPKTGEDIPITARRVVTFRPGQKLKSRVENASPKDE
# T1 sequence (P0A6Y1 whole entry, chain 2 of 2): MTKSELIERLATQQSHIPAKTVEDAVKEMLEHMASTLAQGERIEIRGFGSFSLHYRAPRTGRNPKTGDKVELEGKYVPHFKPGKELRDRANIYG
# [2] = target: T1, Integration Host Factor (IHF); test: EMSA; 70 mM KCl; apparent; 5 mM Tris-HCl pH 7.4-7.6, 70 mM KCl, 0.1 mM EDTA, 0.5-10% ethylene glycol, fluorescence at 10 C; Mg buffer: 5 mM Tris-HCl pH 7.4, 1 mM MgCl2, 10% ethylene glycol; stopped flow 20 C with 0.01% NP-40; details: protein: recombinant, copies: 1;1, label: none for EMSA (SYBR Green)
# [3] = target: T1, Integration Host Factor (IHF); test: EMSA; 1 mM Mg2+; apparent; 5 mM Tris-HCl pH 7.4-7.6, 70 mM KCl, 0.1 mM EDTA, 0.5-10% ethylene glycol, fluorescence at 10 C; Mg buffer: 5 mM Tris-HCl pH 7.4, 1 mM MgCl2, 10% ethylene glycol; stopped flow 20 C with 0.01% NP-40; details: protein: recombinant; copies: 1;1; label: none for EMSA (SYBR Green); 5' TAMRA for fluorescence intensity; donor-acceptor pair for stopped flow; four-way junction of 4 strands (20 nt), four 10 bp arms
# [4] = target: T1, Integration Host Factor (IHF); test: fluorescence intensity; 70 mM KCl; 5'-TAMRA; 5 mM Tris-HCl pH 7.4-7.6, 70 mM KCl, 0.1 mM EDTA, 0.5-10% ethylene glycol, fluorescence at 10 C; Mg buffer: 5 mM Tris-HCl pH 7.4, 1 mM MgCl2, 10% ethylene glycol; stopped flow 20 C with 0.01% NP-40; details: protein: recombinant; copies: 1;1; label: none for EMSA (SYBR Green); 5' TAMRA for fluorescence intensity; donor-acceptor pair for stopped flow; four-way junction of 4 strands (20 nt), four 10 bp arms
# [5] = target: T1, Integration Host Factor (IHF); test: EMSA; 70 mM KCl, no Mg2+; 5 mM Tris-HCl pH 7.4-7.6, 70 mM KCl, 0.1 mM EDTA, 0.5-10% ethylene glycol, fluorescence at 10 C; Mg buffer: 5 mM Tris-HCl pH 7.4, 1 mM MgCl2, 10% ethylene glycol; stopped flow 20 C with 0.01% NP-40; details: protein: recombinant; copies: 1;1; label: none for EMSA (SYBR Green); immobile four-way junction of 4 strands (34 nt), four 17 bp arms
# [6] = target: T1, Integration Host Factor (IHF); test: fluorescence anisotropy; 70 mM KCl; 2 nM DNA; 5 mM Tris-HCl pH 7.4-7.6, 70 mM KCl, 0.1 mM EDTA, 0.5-10% ethylene glycol, fluorescence at 10 C; Mg buffer: 5 mM Tris-HCl pH 7.4, 1 mM MgCl2, 10% ethylene glycol; stopped flow 20 C with 0.01% NP-40; details: protein: recombinant; copies: 1;1; label: fluorescein (end); immobile four-way junction of 4 strands (34 nt), four 17 bp arms
# [7] = target: T1, Integration Host Factor (IHF); test: fluorescence intensity; 70 mM KCl; 0.5 nM DNA; printed as <=2.2; 5 mM Tris-HCl pH 7.4-7.6, 70 mM KCl, 0.1 mM EDTA, 0.5-10% ethylene glycol, fluorescence at 10 C; Mg buffer: 5 mM Tris-HCl pH 7.4, 1 mM MgCl2, 10% ethylene glycol; stopped flow 20 C with 0.01% NP-40; details: protein: recombinant; copies: 1;1; label: 6-MI; immobile four-way junction of 4 strands (34 nt), four 17 bp arms
# [8] = target: T1, Integration Host Factor (IHF); test: fluorescence intensity; 70 mM KCl; end-labeled; 5 mM Tris-HCl pH 7.4-7.6, 70 mM KCl, 0.1 mM EDTA, 0.5-10% ethylene glycol, fluorescence at 10 C; Mg buffer: 5 mM Tris-HCl pH 7.4, 1 mM MgCl2, 10% ethylene glycol; stopped flow 20 C with 0.01% NP-40; details: protein: recombinant, copies: 1;1, label: none for EMSA (SYBR Green), immobile four-way junction of 4 strands, four 17 bp arms
binder,measurement,setting,value
B1,Kd,[1],43 ± 11 nM
same,Kd,"[2]; 5' TAMRA for fluorescence intensity, donor-acceptor pair for stopped flow, four-way junction of 4 strands (20 nt), four 10 bp arms",170 ± 40 nM
same,Kd,[3],514 ± 141 nM
same,Kd,[4],4.4 ± 0.5 nM
B2,Kd,[5],58 ± 36 nM
B3,Kd,[6],2 nM
B4,Kd,[7],< 2.2 nM
B5,Kd,"[2]; end label for fluorescence, immobile four-way junction of 4 strands, four 17 bp arms",65 ± 8 nM
same,Kd,[8],9.2 ± 2 nM
